We go through twelve molecules from US20260242455A1 (SCHOLAR ROCK, published 2026).

In experiment [1] the target is T1, murine pro-myostatin (mouse, UniProt O08689 25-376).
T1 construct: Recombinant in the BLI and reporter assays; endogenous mouse protein in the immunoprecipitation and immunofluorescence experiments; also called proGDF8 (mouse); Murine ProGDF8
Description: ForteBio BLI.

In another experiment the target is T2, murine latent myostatin (mouse, UniProt O08689 25-267; O08689 268-376, Non-covalent complex of prodomain and growth factor; disulfide-linked homodimer, one copy of each chain is given.).
T2 construct: recombinant in BLI, endogenous in serum immunoprecipitation; also called Murine Latent GDF8; copies: 2 + 2
Description: ForteBio BLI.

The target of experiment [2] is T3, mature myostatin growth factor (UniProt O14793 267-375, limits assumed).
T3 construct: mature; Amine-coupled to the sensor tips; also called Mature GDF8
Description: ForteBio BLI.

The target of experiment [3] is murine pro + latent GDF11 (murine, UniProt Q9Z1W4 21-405, limits assumed). Description: ForteBio BLI.
Sequence of murine pro + latent GDF11 (Q9Z1W4 21-405 limits assumed): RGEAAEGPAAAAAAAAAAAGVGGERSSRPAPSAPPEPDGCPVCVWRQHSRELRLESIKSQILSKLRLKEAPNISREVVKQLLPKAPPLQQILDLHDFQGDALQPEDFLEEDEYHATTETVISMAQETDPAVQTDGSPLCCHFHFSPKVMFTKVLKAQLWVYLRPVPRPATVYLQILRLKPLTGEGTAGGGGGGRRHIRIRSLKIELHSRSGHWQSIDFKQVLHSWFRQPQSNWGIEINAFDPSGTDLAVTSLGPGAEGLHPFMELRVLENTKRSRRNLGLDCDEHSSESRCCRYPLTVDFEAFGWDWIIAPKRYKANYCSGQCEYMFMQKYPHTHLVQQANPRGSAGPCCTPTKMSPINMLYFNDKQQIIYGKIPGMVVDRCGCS
The target of the next experiment is murine latent GDF11 (murine, UniProt Q9Z1W4 21-296; Q9Z1W4 297-405, limits assumed). Description: ForteBio BLI.
Sequence of murine latent GDF11 (Q9Z1W4 21-296 limits assumed, chain 1 of 2): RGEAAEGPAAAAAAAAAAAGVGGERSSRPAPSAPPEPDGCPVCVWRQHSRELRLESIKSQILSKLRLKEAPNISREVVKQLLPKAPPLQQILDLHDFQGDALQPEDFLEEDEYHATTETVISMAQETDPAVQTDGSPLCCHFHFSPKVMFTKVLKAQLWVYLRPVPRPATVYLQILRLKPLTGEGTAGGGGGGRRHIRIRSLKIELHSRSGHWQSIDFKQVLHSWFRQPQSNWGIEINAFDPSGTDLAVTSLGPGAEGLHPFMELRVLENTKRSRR
Sequence of murine latent GDF11 (Q9Z1W4 297-405 limits assumed, chain 2 of 2): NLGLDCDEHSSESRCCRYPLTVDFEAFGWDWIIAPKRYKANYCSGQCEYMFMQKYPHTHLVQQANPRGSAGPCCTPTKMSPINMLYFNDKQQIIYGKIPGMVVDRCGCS
The target of experiment [4] is T1, murine pro-myostatin. Description: cell-based or functional assay.
Another experiment has as its target human pro-myostatin (human, UniProt O14793 24-375). Description: cell-based or functional assay.
In experiment [5] the target is T4, pro-myostatin (proGDF8), species not stated in the experiment (UniProt O14793 24-375, limits assumed).
T4 construct: also called pro/latent-myostatin
Description: ForteBio Octet, biotinylated antigen on streptavidin sensor; IgG1.

Experiment [6] addresses T1, murine pro-myostatin. Description: cell-based or functional assay. This is another data set of the same source.
Experiment [7] addresses T1, murine pro-myostatin. Description: ForteBio Octet BLI kinetics.
The target of experiment [8] is T1, murine pro-myostatin. Description: cell-based or functional assay. This is another data set of the same source.
For experiment [9], the target named is T1, murine pro-myostatin. Description: ForteBio Octet BLI kinetics. This is another data set of the same source.
The target of a further experiment is proGDF11 (UniProt O95390 25-407, limits assumed). Description: ForteBio Octet QKe BLI, antibody 50 µg/mL; flagged * non-specific binding, fitted to a poor response.
Sequence of proGDF11 (O95390 25-407 limits assumed): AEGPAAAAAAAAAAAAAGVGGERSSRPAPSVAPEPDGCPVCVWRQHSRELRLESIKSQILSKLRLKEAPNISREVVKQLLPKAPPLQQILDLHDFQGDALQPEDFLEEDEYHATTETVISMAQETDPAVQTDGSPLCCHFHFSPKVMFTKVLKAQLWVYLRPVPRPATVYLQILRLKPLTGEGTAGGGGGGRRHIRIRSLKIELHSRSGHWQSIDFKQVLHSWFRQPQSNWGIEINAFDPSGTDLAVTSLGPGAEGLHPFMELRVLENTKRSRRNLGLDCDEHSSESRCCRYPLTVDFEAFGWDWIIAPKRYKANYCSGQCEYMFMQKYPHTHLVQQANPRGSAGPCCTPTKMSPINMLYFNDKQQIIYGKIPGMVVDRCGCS
Experiment [10] addresses T1, murine pro-myostatin. Description: cell-based or functional assay. The source holds these as a separate data set.
The target of experiment [11] is T1, murine pro-myostatin. Description: ForteBio Octet BLI kinetics. The source holds these as a separate data set.
In experiment [12] the target is T1, murine pro-myostatin. Description: cell-based or functional assay. The source holds these as a separate data set.

Like-named read-outs stand apart in the source and are kept apart here.

Description for proGDF11: Binding affinities of antibody candidates were determined using the FortéBio Octet QKe dip and read label free assay system utilizing bio-layer interferometry. Antigens were immobilized to biosensors (streptavidin-coated biosensors for proGDF8, proGDF11 and proActivin; direct amine coupling for all others) in each experiment and the antibodies/constructs were presented in solution at high concentration (50 μg/mL) to measure binding interactions.

B1: Ab11 (antibody, V domains shown)
VH: QLQLQQSGGGLVKPGGSLRLSCAASGFTFSSYSMNWVRQAPGKGLEWVSSISSSSSYIYYADSVKGRFTISRDNAKNSLYLQMNSLRAEDTAVYYCVRDRHSLGDFDYWGQGTLVTVSS
VL: SSELTQPSVSVSPGQTATITCSGDKLGDKYASWYQQKPGQSPVLVIYQDTKRPSGIPARFSGSNSGNTATLTISGTQAMDEAAYYCQAWDSTTVVFGGGTKLTVLG
notes: Fully human antibody
Take B1: the values for the Kd in the experiment with murine pro-myostatin [1] and with murine latent myostatin were 1.6 nM and 1.8 nM, respectively. The binding result in [2] is given as “no binding (tested: 333 nM)”; in [3], “no binding (tested: 200 nM)”; in the experiment with murine latent GDF11, “no binding (tested: 200 nM)”. The “EC50 Activation Assay” value in the experiment with murine pro-myostatin [4] was 1380 nM.

B2: Ab12 (antibody, V domains shown)
VH: QVQLVQSGGGLIQPGGSLRLSCAASGFTVSSYSMNWVRQAPGKGLEWVSYISSSGSTIYYADSVKGRFTISRDNAKNSLYLQMNSLRAEDTALYYCAKVGTAAAGDAFDIWGQGTMVTVSS
VL: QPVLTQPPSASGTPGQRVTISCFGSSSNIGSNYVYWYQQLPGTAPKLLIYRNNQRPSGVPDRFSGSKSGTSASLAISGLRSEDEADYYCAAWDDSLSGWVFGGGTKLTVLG
notes: Fully human antibody
Turning to B2, the results for the Kd in the experiment with murine pro-myostatin [1] and in the experiment with murine latent myostatin were 3.9 nM and 1.9 nM, respectively. Also, the binding result in experiment [2] is recorded as “no binding (tested: 333 nM)”; in [3] it was “no binding (tested: 200 nM)”; with murine latent GDF11, “no binding (tested: 200 nM)”.

B3: Ab10 (antibody, V domains shown)
VH: EVQLVQSGGGVVQSGRSLRLSCVASGFSFSNYGMHWVRQAPGKGLEWLAFIWYDGSNKWYADSVKGRFTISRDNSKNALYLQMNSLRAEDTAVYYCARDRYSSSWGGGFDYWGQGTVLTVSS
VL: NFMLTQPHSVSESPGRTVTIPCSGRGGSIASDSVQWYQQRPGSAPTTIIYEDNQRPSGVPDRFSGSVDSSSNSASLTISGLRTEDEADYYCQSYDASSLWVFGGKTKLTVLG
notes: also called anti-pro/latent GDF8 antibody, Ab10
As for B3, the Kd with murine pro-myostatin [1] turned out to be 3.7 nM; in the experiment with murine latent myostatin it was 4.2 nM; in experiment [5], 300 nM. Also, the binding result is recorded as “no binding (tested: 333 nM)” in experiment [2], “no binding (tested: 200 nM)” in experiment [3] and “no binding (tested: 200 nM)” with murine latent GDF11. For the same molecule, in the experiment with human pro-myostatin, the “Human proGDF8 IC50, Reporter assay” value was found to be 772 nM. For the same molecule, the “EC50 Activation Assay” value with murine pro-myostatin [4] stood at 373 nM.

B4: Ab14 (antibody, V domains shown)
VH: EVQLLESRAEVKKPGESLKISCKGSGYSFTSYWIGWVRQMPGKGPEWMGIIYPGDSDTRYSPSFQGQVTISADKSISTAYLQWSSLKASDTAMYYCARLVYGGYDEPGYYFDYWGQGTLVTVSS
VL: not shown
notes: Fully human antibody
For the molecule B4, the dissociation constant Kd with murine latent myostatin was determined as 18.8 nM; in experiment [2], 2.1 nM. For the same molecule, the binding result (in [3]; in the experiment with murine latent GDF11) was “no binding (tested: 200 nM)” in each case.

B5: Ab1 (parental), IgG4 (S228P)/lambda (antibody, V domains shown)
VH: QIQLVQSGGGVVQPGRSLRLSCAASGFTFSSYGMHWVRQAPGKGLEWVAVISYDGSNKYYADSVKGRFTISRDNSKNTLYLQMNSLRAEDTAVYYCARDLLVRFLEWSHYYGMDVWGQGTTVTVSS
VL: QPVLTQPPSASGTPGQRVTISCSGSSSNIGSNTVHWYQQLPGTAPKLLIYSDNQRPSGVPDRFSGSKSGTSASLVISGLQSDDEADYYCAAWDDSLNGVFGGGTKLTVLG
notes: Fully human IgG4 (S228P), lambda; also called parental Ab1 IgG4; copies: 2 + 2
For the molecule B5, the “Activity Assay - 293T cells EC50” value with murine pro-myostatin [6] worked out at 839 nM. In the experiment with murine pro-myostatin [7], this molecule had a Kd of 11 nM, a koff of 0.00262 s⁻¹ and a kon of 237000 M⁻¹ s⁻¹.

B6: Ab4 (germlined Ab3), IgG4 (S228P)/lambda (antibody, V domains shown)
VH: QVQLVESGGGVVQPGRSLRLSCAASGFAFSSYGMHWVRQAPGKGLEWVAVISYDGSIKYYADSVKGRFTISRDNSKNTLYLQMNSLRAEDTAVYYCARDLLVRFLEWSHKYGMDVWGQGTTVTVSS
VL: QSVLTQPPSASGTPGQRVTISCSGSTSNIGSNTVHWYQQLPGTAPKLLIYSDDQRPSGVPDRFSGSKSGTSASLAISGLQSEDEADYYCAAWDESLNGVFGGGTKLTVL
notes: Human IgG4/lambda
For B6, the “Activity Assay - 293T cells EC50” value with murine pro-myostatin [8] was 447 nM. In the experiment with murine pro-myostatin [9], this molecule yielded a Kd of 1.08 nM, a koff of 0.000272 s⁻¹ and a kon of 253000 M⁻¹ s⁻¹. Binding with proGDF11 was characterised by a dissociation constant (Kd) of 125 nM.

B7: Ab6 (germlined Ab5), IgG4 (S228P)/lambda (antibody, V domains shown)
VH: QVQLVESGGGVVQPGRSLRLSCAASGFAFSSYGMHWVRQAPGKGLEWVAVISYDGNNKYYADSVKGRFTISRDNSKNTLYLQMNSLRAEDTAVYYCARDLLVRFLEWSHKYGMDVWGQGTTVTVSS
VL: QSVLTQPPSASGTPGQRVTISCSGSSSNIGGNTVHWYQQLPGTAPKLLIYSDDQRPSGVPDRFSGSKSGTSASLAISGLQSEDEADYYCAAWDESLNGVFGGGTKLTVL
notes: Human IgG4/lambda
As to B7, the “Activity Assay - 293T cells EC50” value in the experiment with murine pro-myostatin [10] is 307 nM. Moreover, in the experiment with murine pro-myostatin [11], the affinity, expressed as Kd, was 0.954 nM; the koff came to 0.000281 s⁻¹; the kon was 294000 M⁻¹ s⁻¹. Further, in the experiment with proGDF11, the affinity, expressed as Kd, was 60.7 nM.

B8: Ab8 (antibody, V domains shown)
VH: QIQLVQSGAEVKKPGASVKVSCKASGYTFTSYGISWVRQAPGQGLEWMGWISAYNGNTNYAQKLQGRVTMTTDTSTSTAYMELSSLRSEDTAVYYCARVGFYDYVWGSYPYDAFDIWGQGTMVTVSS
VL: EIVMTQSPGTLSLSPGERATLSCRASQSVSSNYLAWYQQKPGQAPRLLIYDASNRATGIPARFSGSGSGTDFTLTISSLEPEDFALYYCQQYGTSPLTFGGGTKLEIKR
Turning to B8, the figures for the dissociation constant Kd (with murine pro-myostatin [1]; in experiment [5]) were 1.4 nM and 500 nM, respectively. Also, the figures for the binding result (in [2]; in experiment [3]; in the experiment with murine latent GDF11) were “no binding (tested: 333 nM)”, “no binding (tested: 200 nM)” and “no binding (tested: 200 nM)”, respectively. The “Human proGDF8 IC50, Reporter assay” value with human pro-myostatin is 6040 nM. Also, the “Murine proGDF8 IC50, Reporter assay” value with murine pro-myostatin [12] is 139000 nM. In the experiment with murine pro-myostatin [4], the “EC50 Activation Assay” value stood at 1600 nM.

B9: Ab7 (antibody, V domains shown)
VH: QVQLQQSGAEVKKPGASVKVSCKASGYTFTSYYMHWVRQAPGQGLEWMGIINPSGGSTSYAQKFQGRVTMTRDTSTSTVYMELSSLRSEDTAVYYCARESLIRFLEDPQQGGMDVWGQGTTVTVSS
VL: QSALTQPASVSGSPGQSLTISCTGTSSDIGGYNYVSWYQQHPGKAPKLIIYDVTDRPSGVSGRFSGSKSGNTASLTISGLQTEDEAEYFCNSWTRSNNYIFGGGTKLTVLG
For the molecule B9, the Kd with murine pro-myostatin [1] turned out to be 32.9 nM; with murine latent myostatin it was 28.4 nM; in experiment [5], 28000 nM. Besides, the binding result in [2] is on record as “no binding (tested: 333 nM)”; in experiment [3], “no binding (tested: 200 nM)”; with murine latent GDF11 it was “no binding (tested: 200 nM)”. Further, the “Human proGDF8 IC50, Reporter assay” value in the experiment with human pro-myostatin was 983 nM. In addition, the “Murine proGDF8 IC50, Reporter assay” value with murine pro-myostatin [12] turned out to be 1680 nM. The “EC50 Activation Assay” value with murine pro-myostatin [4] came to 555 nM.

B10: Ab13 (antibody, V domains shown)
VH: EVQLVQSGGGLVQPGRSLRLSCAASGFTFDDYAMHWVRQAPGKGLEWVSGISWNSGSIGYADSVKGRFTISRDNAKNSLYLQMNSLRAEDTALYYCAKDTSNGGYSSSSFDYWGQGTLVTVSS
VL: QSALTQPASVSGSPGQSITISCTGTSSDVGGYNYVSWYQQHPGTAPKLMIYDVSYRPSGVSNRFSGSKSGNTASLTISGLQAEDEADYYCSSYTSSSTLVFGTGTKVTVLG
notes: Fully human antibody
With B10, the Kd with murine pro-myostatin [1] stood at 4.3 nM. The binding result is “no binding (tested: 333 nM)” in experiment [2], “no binding (tested: 200 nM)” in experiment [3] and “no binding (tested: 200 nM)” in the experiment with murine latent GDF11.

B11: Ab9 (antibody, V domains shown)
VH: QVQLVQSGAEVKKPGSSVKVSCKASGGTFSSYAISWVRQAPGQGLEWMGGIIPIFGTANYAQKFQGRVTITADESTSTAYMELSSLRSEDTAVYYCANHGLMDDSSGYYLSNAFDIWGQGTMVTVSS
VL: not shown
As for B11, the Kd came out at 8.5 nM with murine pro-myostatin [1], 7.8 nM with murine latent myostatin and 22000 nM in experiment [5]. Besides, the binding result in experiment [2] is reported as “no binding (tested: 333 nM)”; in [3], “no binding (tested: 200 nM)”; in the experiment with murine latent GDF11 it was “no binding (tested: 200 nM)”. Also, the “Human proGDF8 IC50, Reporter assay” value with human pro-myostatin is 12200 nM. The “Murine proGDF8 IC50, Reporter assay” value with murine pro-myostatin [12] was determined as 19900 nM.

B12: Ab15 (antibody, V domains shown)
VH: EVQLVQSGGGLVQPGRSLRLSCAASGFTFDDYAMHWVRQAPGKGLEWVSGISWNSGSIGYADSVKGRFTISRDNSKNTLYLQMNSLRAEDTAVYYCAKVDGLEYSSGHNFDYWGQGTLVTVSS
VL: QSALTQPPSVSGSPGQSVTISCTGSSSDVGYYDHVSWYQHHPGRAPKVIIYDVTKRPSGVPDRFSGSKSGNTASLTISGLQAEDEADYYCSSYAGSYTWVFGGGTELTVLG
notes: Fully human antibody
In the case of B12, the figures for the Kd (with murine pro-myostatin [1]; in the experiment with murine latent myostatin; in [2]) were 4.7 nM, 11 nM and 9.5 nM, respectively. In addition, the binding result (in [3]; in the experiment with murine latent GDF11) was “no binding (tested: 200 nM)” each time.
